# Laboratory results from paper PMC8951219.
# Tested on: MSA-R2c (p57, major soluble antigen, IPT-domain construct) (Renibacterium salmoninarum)
# Test: plate binding assay with immobilized protein, bound aptamer quantified by qPCR
# Conditions: 20 mM Tris-HCl pH 7.4, room temperature, 1 h; wells coated with 50 uL of 2.5 uM protein, 1% BSA block; aptamer 0.0205-41 nM, heated at 95 C for 5 min; no added …
sequence,measurement,value
ATGATACGGCGACCACCTAACCATTTTCACTGTTTGTTTAATATATATAGTTTTATGGTATAGCGTCGTGTAGGGAAAGA [Aptamer-4],Kd,3 nM
